Measured values taken from PMC8996325.

Biological target: T1, Act1 SEFIR (wild type) (UniProt Q8N7N6 390-531)
T1 sequence: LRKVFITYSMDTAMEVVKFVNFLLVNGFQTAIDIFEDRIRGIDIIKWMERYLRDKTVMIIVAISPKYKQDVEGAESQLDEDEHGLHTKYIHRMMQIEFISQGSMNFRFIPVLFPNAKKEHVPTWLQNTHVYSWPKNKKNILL
Assay: competition

B1: Hif1α aptamer (SBE) (structured_RNA)
RNA: UAAUGCUCUUUUUAAUAUGUUCUUUUAAUGCCAGAUCACAGCACAUUCACAGCU
modifications: chemically modified RNA oligo (modification not specified)
binding result: binds
